The supplement of paper PMC10724198
± gives the standard deviation of the averaged measurements.

System: Saccharomyces cerevisiae
Test: protein stability index of tFT-peptide fusion (C-terminal peptide) (PSI (0-1 scale)); higher = more stable (slower turnover)
Conditions: genetic background: das1 deletion; temperature: 30 C
Experimental: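 MPS profiling in S. cerevisiae of the tFT-X12 degron library: putative degron peptides plus stable controls, 12 aa, fused to the C-terminus of a sfGFP-mCherry timer. Cells are FACS-sorted into 8 mCherry/sfGFP bins and deep-sequenced. PSI runs from 0 (unstable) to 1 (stable). Backgrounds are wild type, das1Δ and doa10Δ at 30 °C, and wild type, das1Δ, cdc34-1 and cdc53-1 at 37 °C; 2-3 technical replicates each.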
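Note: PSI is a weighted mean of sequencing reads over stability bins, variants kept only with over 10 reads, mCherry proximal and sfGFP distal, peptide attached via GGGS linker.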

Row | Sequence | protein stability index
1 | AFRRFLLYCRFI | 0.503 ± 0.035
2 | AIPRWLALLVAH | 0.29 ± 0.032
3 | ALWRAWLRLRIW | 0.582 ± 0.019
4 | AQLVYVITAVRT | 0.333 ± 0.031
5 | ARLTNYFVEWLS | 0.657 ± 0.0066
6 | ASAYCCMITRLN | 0.629 ± 0.012
7 | ASGVFSRLVLVS | 0.284 ± 0.03
8 | ASPLRLFIPFLF | 0.632 ± 0.034
9 | AWLWCVCWSIMR | 0.317 ± 0.034
10 | AYFPSQRVHHLM | 0.661 ± 0.016
11 | CACAVPFLLLFF | 0.374 ± 0.022
12 | CCSRYLSNLCPI | 0.631 ± 0.016
13 | CDSRIRKIWSYL | 0.774 ± 0.021
14 | CFFPLFLCTAFC | 0.394 ± 0.023
15 | CFSVFSVLCFFV | 0.532 ± 0.03
16 | CFVFYALFGFAV | 0.302 ± 0.036
17 | CLISILLFLCFT | 0.392 ± 0.014
18 | CLLVCCCFYRNV | 0.409 ± 0.032
19 | CLVKIVIFFLFS | 0.217 ± 0.037
20 | CNIYVLIIIKKY | 0.192 ± 0.026

Row | Sequence | protein stability index
21 | CPPPCPLYMLLC | 0.536 ± 0.03
22 | CRLLYYIPCGLF | 0.534 ± 0.029
23 | CRRLCGWLFVCV | 0.387 ± 0.037
24 | CSFELSVCLMLR | 0.133 ± 0.013
25 | CSLRLCVRGAIV | 0.602 ± 0.01
26 | CSSSNRRRYFVL | 0.66 ± 0.014
27 | CVARWPRPAGSS | 0.655 ± 0.015
28 | CVFFPFLGVCYV | 0.333 ± 0.025
29 | CVGRPIALAVRT | 0.375 ± 0.04
30 | CVLLRPGFLVLV | 0.207 ± 0.021
31 | CVYGILLLVDVR | 0.106 ± 0.032
32 | CWDNTLKTMRQM | 0.655 ± 0.042
33 | CWLFCACFVRLV | 0.211 ± 0.019
34 | CYFLFFLSYSLE | 0.231 ± 0.05
35 | CYTGYMYKLLVG | 0.48 ± 0.031
36 | DFHLPWPVALVW | 0.217 ± 0.018
37 | DFIVVIRFIQII | 0.266 ± 0.023
38 | DFVYFPPIPVSS | 0.253 ± 0.051
39 | DISWVFVLLIFF | 0.3 ± 0.033
40 | DMWYLLWRVCYI | 0.43 ± 0.022

Row | Sequence | protein stability index
41 | EGALSGGGKTSG | 0.634 ± 0.016
42 | EKIIVAVLFVVP | 0.305 ± 0.02
43 | ENKGGNQKRRKK | 0.628 ± 0.056
44 | EQMRRYILVSYV | 0.427 ± 0.019
45 | ERFRLYFRPGIF | 0.653 ± 0.031
46 | ESCWVSRVGVCR | 0.649 ± 0.062
47 | EVTRMLRVVREI | 0.631 ± 0.026
48 | EWLITLRKCGVA | 0.478 ± 0.026
49 | EWRPYKRNKQSS | 0.638 ± 0.028
50 | EWVGIFRGVSVF | 0.256 ± 0.032
51 | FAKRVARVAREH | 0.6452 ± 0.0051
52 | FALFLFFGPLIV | 0.301 ± 0.056
53 | FASFLFFCYIIF | 0.192 ± 0.034
54 | FCCFFPFLWRVF | 0.541 ± 0.013
55 | FCFYLLFLGFTR | 0.364 ± 0.027
56 | FCLFFFPSLFFF | 0.529 ± 0.042
57 | FCRLCYLLLFCC | 0.404 ± 0.025
58 | FELVWLCIIGAL | 0.331 ± 0.031
59 | FFCFFWLFHWFG | 0.485 ± 0.016
60 | FFCSLIISRFLL | 0.511 ± 0.018

Same assay, conditions: genetic background: das1 deletion; temperature: 37 C

Row | Sequence | protein stability index
61 | AFRRFLLYCRFI | 0.607 ± 0.015
62 | AIPRWLALLVAH | 0.4508 ± 0.0036
63 | ALWRAWLRLRIW | 0.733 ± 0.016
64 | AQLVYVITAVRT | 0.569 ± 0.026
65 | ARLTNYFVEWLS | 0.746 ± 0.012
66 | ASAYCCMITRLN | 0.611 ± 0.047
67 | ASGVFSRLVLVS | 0.4576 ± 0.0023
68 | ASPLRLFIPFLF | 0.755 ± 0.036
69 | AWLWCVCWSIMR | 0.502 ± 0.024
70 | AYFPSQRVHHLM | 0.765 ± 0.013
71 | CACAVPFLLLFF | 0.505 ± 0.0063
72 | CCSRYLSNLCPI | 0.7263 ± 0.0048
73 | CDSRIRKIWSYL | 0.834 ± 0.026
74 | CFFPLFLCTAFC | 0.513 ± 0.011
75 | CFSVFSVLCFFV | 0.627 ± 0.015
76 | CFVFYALFGFAV | 0.484 ± 0.0052
77 | CLISILLFLCFT | 0.459 ± 0.037
78 | CLLVCCCFYRNV | 0.586 ± 0.0086
79 | CLVKIVIFFLFS | 0.371 ± 0.0075
80 | CNIYVLIIIKKY | 0.344 ± 0.076

Row | Sequence | protein stability index
81 | CPPPCPLYMLLC | 0.6121 ± 0.0031
82 | CRLLYYIPCGLF | 0.701 ± 0.035
83 | CRRLCGWLFVCV | 0.548 ± 0.014
84 | CSFELSVCLMLR | 0.198 ± 0.016
85 | CSLRLCVRGAIV | 0.71597 ± 0.00049
86 | CSSSNRRRYFVL | 0.724 ± 0.033
87 | CVARWPRPAGSS | 0.729 ± 0.0097
88 | CVFFPFLGVCYV | 0.473 ± 0.0093
89 | CVGRPIALAVRT | 0.56 ± 0.0093
90 | CVLLRPGFLVLV | 0.278 ± 0.013
91 | CVYGILLLVDVR | 0.128 ± 0.005
92 | CWDNTLKTMRQM | 0.7322 ± 0.0059
93 | CWLFCACFVRLV | 0.333 ± 0.015
94 | CYFLFFLSYSLE | 0.455 ± 0.019
95 | CYTGYMYKLLVG | 0.59019 ± 0.00036
96 | DFHLPWPVALVW | 0.277 ± 0.0039
97 | DFIVVIRFIQII | 0.3971 ± 0.0035
98 | DFVYFPPIPVSS | 0.462 ± 0.011
99 | DISWVFVLLIFF | 0.485 ± 0.029
100 | DMWYLLWRVCYI | 0.582 ± 0.02

Row | Sequence | protein stability index
101 | EGALSGGGKTSG | 0.7181 ± 0.0047
102 | EKIIVAVLFVVP | 0.504 ± 0.012
103 | ENKGGNQKRRKK | 0.736 ± 0.012
104 | EQMRRYILVSYV | 0.5998 ± 0.0036
105 | ERFRLYFRPGIF | 0.709 ± 0.021
106 | ESCWVSRVGVCR | 0.7347 ± 0.0049
107 | EVTRMLRVVREI | 0.768 ± 0.016
108 | EWLITLRKCGVA | 0.6107 ± 0.006
109 | EWRPYKRNKQSS | 0.755 ± 0.023
110 | EWVGIFRGVSVF | 0.4158 ± 0.003
111 | FAKRVARVAREH | 0.726 ± 0.012
112 | FALFLFFGPLIV | 0.52344 ± 0.00026
113 | FASFLFFCYIIF | 0.2631 ± 0.00071
114 | FCCFFPFLWRVF | 0.663 ± 0.017
115 | FCFYLLFLGFTR | 0.546 ± 0.053
116 | FCLFFFPSLFFF | 0.604 ± 0.023
117 | FCRLCYLLLFCC | 0.531 ± 0.022
118 | FELVWLCIIGAL | 0.516 ± 0.01
119 | FFCFFWLFHWFG | 0.5875 ± 0.0025
120 | FFCSLIISRFLL | 0.62 ± 0.02
